Test results as given in patent publication US8840891 (RSR, dated 2014).

What was measured:
[1] = target: TSHR Asp151Ala expressed in CHO cells (human) (UniProt P16473); test: cell-based or functional assay
[2] = target: TSHR I568T (activating mutation) expressed in CHO cells (human) (UniProt P16473); test: cell-based or functional assay
[3] = target: TSHR Lys183Ala expressed in CHO cells (human) (UniProt P16473); test: cell-based or functional assay
[4] = target: TSHR with Asp43 mutated to Alanine expressed on CHO cells (human) (UniProt P16473); test: cell-based or functional assay
[5] = target: TSHR with Glu107 mutated to Alanine expressed on CHO cells (human) (UniProt P16473); test: cell-based or functional assay
[6] = target: TSHR with activating mutation A623I expressed on CHO cells (human) (UniProt P16473); test: cell-based or functional assay
[7] = target: TSHR with activating mutation I568T expressed on CHO cells (human) (UniProt P16473); test: cell-based or functional assay
[8] = target: TSHR with activating mutation S281I expressed on CHO cells (human) (UniProt P16473); test: cell-based or functional assay
[9] = target: human TSHR (wild type) expressed in CHO cells (human) (UniProt P16473); test: cell-based or functional assay
[10] = target: wild type human TSHR (thyrotropin receptor) expressed on CHO cells (human) (UniProt P16473); test: cell-based or functional assay
[11] = target: TSHR coated on ELISA plate wells (RSR Ltd) (human) (UniProt P16473); test: ELISA on TSHR-coated wells, 5C9 IgG-biotin binding with HBD pool (no competitor)

B1: 5C9 IgG (human monoclonal autoantibody to the TSHR) (antibody, from another filing, V domains shown)
VH: EVQLVESGGGLIQPGGSLRLSCAASGFTVSSNYMSWVRQAPGKGLEWVSVTYSGGSTSYADSVKGRFTISRDNSKNTLYLQMNSLRAEDTAVYYCARGGRYCSSISCYARSGCDYWGQGTLVTVSS
VL: AIQMTQSPSSLSASVGDRVTITCRASQSISNYLNWYQQKPGKAPKLLIYAASSLQSGVPSRFSGSGSGTDFTLTISSLQPEDFATYYCQQSYSSPSTTFGQGTKLEIK
- % inhibition of TSH stimulation of cyclic AMP; 5C9 IgG 1 µg/mL [1]: 49%
- % inhibition of basal cyclic AMP activity; 5C9 IgG 1 µg/mL [2]: 83%
- % inhibition of TSH stimulation of cyclic AMP; 5C9 IgG 1 µg/mL [3]: 28%
- % inhibition of TSH stimulation of cyclic AMP; 5C9 IgG 100 µg/mL [3]: 43%
- Cyclic AMP produced; 5C9 0.01 µg/mL + TSH (fmol/cell well) [4]: 12700
- Cyclic AMP produced; 5C9 0.1 µg/mL + TSH (fmol/cell well) [4]: 6730
- Cyclic AMP produced; 5C9 1.0 µg/mL + TSH (fmol/cell well) [4]: 471
- Cyclic AMP produced; 5C9 10 µg/mL + TSH (fmol/cell well) [4]: 119
- Cyclic AMP produced; 5C9 100 µg/mL + TSH (fmol/cell well) [4]: 31
- Cyclic AMP produced; 5C9 100 µg/mL only (fmol/cell well) [4]: 206
- Mutated/wild type (%); 5C9 0.01 µg/mL + TSH [4]: 97%
- Mutated/wild type (%); 5C9 0.1 µg/mL + TSH [4]: 86%
- Mutated/wild type (%); 5C9 1.0 µg/mL + TSH [4]: 23%
- Mutated/wild type (%); 5C9 10 µg/mL + TSH [4]: 39%
- Mutated/wild type (%); 5C9 100 µg/mL + TSH [4]: 37%
- Mutated/wild type (%); 5C9 100 µg/mL only [4]: 438%
- Cyclic AMP produced; Experiment 1; 5C9 0.01 µg/mL + TSH (fmol/cell well) [5]: 15000
- Cyclic AMP produced; Experiment 1; 5C9 0.1 µg/mL + TSH (fmol/cell well) [5]: 5780
- Cyclic AMP produced; Experiment 1; 5C9 1.0 µg/mL + TSH (fmol/cell well) [5]: 394
- Cyclic AMP produced; Experiment 1; 5C9 10 µg/mL + TSH (fmol/cell well) [5]: 449
- Cyclic AMP produced; Experiment 1; 5C9 100 µg/mL + TSH (fmol/cell well) [5]: 203
- Cyclic AMP produced; Experiment 1; 5C9 100 µg/mL only (fmol/cell well) [5]: 462
- Cyclic AMP produced; Experiment 2; 5C9 0.01 µg/mL + TSH (fmol/cell well) [5]: 21000
- Cyclic AMP produced; Experiment 2; 5C9 0.1 µg/mL + TSH (fmol/cell well) [5]: 1540
- Cyclic AMP produced; Experiment 2; 5C9 1.0 µg/mL + TSH (fmol/cell well) [5]: 28
- Cyclic AMP produced; Experiment 2; 5C9 10 µg/mL + TSH (fmol/cell well) [5]: 321
- Cyclic AMP produced; Experiment 2; 5C9 100 µg/mL + TSH (fmol/cell well) [5]: 64
- Cyclic AMP produced; Experiment 2; 5C9 100 µg/mL only (fmol/cell well) [5]: 408
- Mutated/wild type (%); Experiment 1; 5C9 0.01 µg/mL + TSH [5]: 88%
- Mutated/wild type (%); Experiment 1; 5C9 0.1 µg/mL + TSH [5]: 97%
- Mutated/wild type (%); Experiment 1; 5C9 1.0 µg/mL + TSH [5]: 37%
- Mutated/wild type (%); Experiment 1; 5C9 10 µg/mL + TSH [5]: 91%
- Mutated/wild type (%); Experiment 1; 5C9 100 µg/mL + TSH [5]: 105%
- Mutated/wild type (%); Experiment 1; 5C9 100 µg/mL only [5]: 36%
- Mutated/wild type (%); Experiment 2; 5C9 0.01 µg/mL + TSH [5]: 113%
- Mutated/wild type (%); Experiment 2; 5C9 0.1 µg/mL + TSH [5]: 37%
- Mutated/wild type (%); Experiment 2; 5C9 1.0 µg/mL + TSH [5]: 4%
- Mutated/wild type (%); Experiment 2; 5C9 10 µg/mL + TSH [5]: 150%
- Mutated/wild type (%); Experiment 2; 5C9 100 µg/mL + TSH [5]: 27%
- Mutated/wild type (%); Experiment 2; 5C9 100 µg/mL only [5]: 193%
- Cyclic AMP concentration (basal) in the presence of 5C9 IgG (1 µg/mL) (fmol/cell well) [6]: 1910
- inhibition of basal cyclic AMP activity; 5C9 IgG at 1 µg/mL [6]: 49%
- Cyclic AMP concentration (basal) in the presence of 5C9 IgG (1 µg/mL) (fmol/cell well) [7]: 548
- Cyclic AMP concentration (basal) in the presence of 5C9 IgG (1 µg/mL) (fmol/cell well) [8]: 655
- % inhibition of TSH stimulation of cyclic AMP; 5C9 IgG 1 µg/mL; wild type in the Asp151Ala experiment [9]: 88%
- % inhibition of TSH stimulation of cyclic AMP; 5C9 IgG 1 µg/mL; wild type in the Lys183Ala experiment [9]: 84%
- % inhibition of TSH stimulation of cyclic AMP; 5C9 IgG 100 µg/mL; wild type in the Lys183Ala experiment [9]: 93%
- activity in blocking TSH stimulation of cyclic AMP, relative to donor serum IgG [9]: 3900 times
- basal cyclic AMP level relative to cyclic AMP assay buffer; 5C9 IgG 1 µg/mL; CHO cells with approximately 5x10^5 wild type TSHRs per cell [9]: 33%
- cyclic AMP production; 5C9 IgG 0.001 µg/mL + M22 Fab 3 ng/mL (fmol/cell well) [9]: 11600
- cyclic AMP production; 5C9 IgG 0.001 µg/mL + pTSH 3 ng/mL (fmol/cell well) [9]: 14100
- cyclic AMP production; 5C9 IgG 0.001 µg/mL only (fmol/cell well) [9]: 554
- cyclic AMP production; 5C9 IgG 0.01 µg/mL + M22 Fab 3 ng/mL (fmol/cell well) [9]: 9980
- cyclic AMP production; 5C9 IgG 0.01 µg/mL + pTSH 3 ng/mL (fmol/cell well) [9]: 15000
- cyclic AMP production; 5C9 IgG 0.01 µg/mL only (fmol/cell well) [9]: 578
- cyclic AMP production; 5C9 IgG 0.1 µg/mL + M22 Fab 3 ng/mL (fmol/cell well) [9]: 1300
- cyclic AMP production; 5C9 IgG 0.1 µg/mL + pTSH 3 ng/mL (fmol/cell well) [9]: 3920
- cyclic AMP production; 5C9 IgG 0.1 µg/mL only (fmol/cell well) [9]: 404
- cyclic AMP production; 5C9 IgG 1 µg/mL + M22 Fab 3 ng/mL (fmol/cell well) [9]: 956
- cyclic AMP production; 5C9 IgG 1 µg/mL + pTSH 3 ng/mL (fmol/cell well) [9]: 1870
- cyclic AMP production; 5C9 IgG 1 µg/mL only (fmol/cell well) [9]: 376
- cyclic AMP production; 5C9 IgG 10 µg/mL + M22 Fab 3 ng/mL; mean of duplicate samples (fmol/cell well) [9]: 638
- cyclic AMP production; 5C9 IgG 10 µg/mL + pTSH 3 ng/mL (fmol/cell well) [9]: 1030
- cyclic AMP production; 5C9 IgG 10 µg/mL only (fmol/cell well) [9]: 360
- cyclic AMP production; 5C9 IgG 100 µg/mL + M22 Fab 3 ng/mL (fmol/cell well) [9]: 354
- cyclic AMP production; 5C9 IgG 100 µg/mL + pTSH 3 ng/mL (fmol/cell well) [9]: 1090
- cyclic AMP production; 5C9 IgG 100 µg/mL only (fmol/cell well) [9]: 426
- cyclic AMP; 5C9 IgG 0.01 µg/mL + pTSH (3 ng/mL) (fmol/cell well) [9]: 19000
- cyclic AMP; 5C9 IgG 0.02 µg/mL + pTSH (3 ng/mL) (fmol/cell well) [9]: 16400
- cyclic AMP; 5C9 IgG 0.04 µg/mL + pTSH (3 ng/mL) (fmol/cell well) [9]: 13900
- cyclic AMP; 5C9 IgG 0.06 µg/mL + pTSH (3 ng/mL); single determination (fmol/cell well) [9]: 13300
- cyclic AMP; 5C9 IgG 0.08 µg/mL + pTSH (3 ng/mL) (fmol/cell well) [9]: 14500
- cyclic AMP; 5C9 IgG 0.1 µg/mL + pTSH (3 ng/mL) (fmol/cell well) [9]: 11900
- cyclic AMP; 5C9 IgG 0.5 µg/mL + pTSH (3 ng/mL) (fmol/cell well) [9]: 4750
- cyclic AMP; 5C9 IgG 1 µg/mL + pTSH (3 ng/mL) (fmol/cell well) [9]: 2210
- cyclic AMP; 5C9 IgG only 1 µg/mL (fmol/cell well) [9]: 141
- cyclic AMP; Example 1; 5C9 IgG 10 µg/mL + TSH (fmol/cell well) [9]: 247
- cyclic AMP; Example 1; 5C9 IgG 100 µg/mL + TSH (fmol/cell well) [9]: 754
- cyclic AMP; Example 1; 5C9 IgG 100 µg/mL only (fmol/cell well) [9]: 237
- cyclic AMP; Example 2; 5C9 IgG 10 µg/mL + TSH (fmol/cell well) [9]: 723
- cyclic AMP; Example 2; 5C9 IgG 100 µg/mL + TSH (fmol/cell well) [9]: 1110
- cyclic AMP; Example 2; 5C9 IgG 100 µg/mL only (fmol/cell well) [9]: 338
- inhibition of cyclic AMP production stimulated by patient serum T3; 5C9 IgG 100 µg/mL [9]: 50%
- Cyclic AMP concentration (basal) in the presence of 5C9 IgG (1 µg/mL) (fmol/cell well) [10]: 1870
- Cyclic AMP produced; 5C9 0.01 µg/mL + TSH (fmol/cell well) [10]: 13100
- Cyclic AMP produced; 5C9 0.1 µg/mL + TSH (fmol/cell well) [10]: 7810
- Cyclic AMP produced; 5C9 1.0 µg/mL + TSH (fmol/cell well) [10]: 2020
- Cyclic AMP produced; 5C9 10 µg/mL + TSH (fmol/cell well) [10]: 306
- Cyclic AMP produced; 5C9 100 µg/mL + TSH (fmol/cell well) [10]: 84
- Cyclic AMP produced; 5C9 100 µg/mL only (fmol/cell well) [10]: 47
- Cyclic AMP produced; Experiment 1; 5C9 0.01 µg/mL + TSH (fmol/cell well) [10]: 17000
- Cyclic AMP produced; Experiment 1; 5C9 0.1 µg/mL + TSH (fmol/cell well) [10]: 5950
- Cyclic AMP produced; Experiment 1; 5C9 1.0 µg/mL + TSH (fmol/cell well) [10]: 1060
- Cyclic AMP produced; Experiment 1; 5C9 10 µg/mL + TSH (fmol/cell well) [10]: 496
- Cyclic AMP produced; Experiment 1; 5C9 100 µg/mL + TSH (fmol/cell well) [10]: 193
- Cyclic AMP produced; Experiment 1; 5C9 100 µg/mL only (fmol/cell well) [10]: 1270
- Cyclic AMP produced; Experiment 2; 5C9 0.01 µg/mL + TSH (fmol/cell well) [10]: 18600
- Cyclic AMP produced; Experiment 2; 5C9 0.1 µg/mL + TSH (fmol/cell well) [10]: 4220
- Cyclic AMP produced; Experiment 2; 5C9 1.0 µg/mL + TSH (fmol/cell well) [10]: 738
- Cyclic AMP produced; Experiment 2; 5C9 10 µg/mL + TSH (fmol/cell well) [10]: 214
- Cyclic AMP produced; Experiment 2; 5C9 100 µg/mL + TSH (fmol/cell well) [10]: 238
- Cyclic AMP produced; Experiment 2; 5C9 100 µg/mL only (fmol/cell well) [10]: 211
- Abs 450 nm [11]: 2.42 Abs 450 nm
